# Data from patent publication US20080220446A1, “Method for Detecting and/or Removing Protein and/or Peptide Comprising a Cross-Beta Structure From an Aqueous Solution Comprising a Protein” (priority 2005, published 2008).
# Tests used:
# platelets = experiment: Platelet aggregation assay with BSA-AGE spiked plasma before and after depletion; type: cell-based, human; details: 512-fold diluted plasma spiked with 250 μg/ml, tenfold diluted
# Experimental: Results are compared to platelet activating properties of the spiked plasma before depletion of BSA-AGE.
# Freshly drawn human aspirin free blood was mixed gently with citrate buffer to avoid coagulation. Blood was spinned for 15′ at 150*g at 20° C. and supernatant was collected; platelet rich plasma (PRP) with an adjusted final platelet number of 200,000 platelets/μl. Platelets were kept at 37° C. for at least 30′, before use in the assays, to ensure that they were in the resting state. For the aggregometric assays, 270 μl platelet solution was added to a glass tube and prewarmed to 37° C. A stirring magnet was added and rotation was set to 900 rpm, and the apparatus (Whole-blood aggregometer, Chrono-log, Havertown, Pa., USA) was blanked. […] Aggregation was followed in time by measuring the absorbance of the solution, that will decrease in time upon platelet aggregation. As a positive control synthetic thrombin receptor activating peptide TRAP was used. Aggregation was recorded for 15′ and expressed as the percentage of the transmitted light (0-100%).
# fibronectin F4,5 = target: T1, fibronectin F4,5 (Homo sapiens, UniProt P02751); experiment: Affinity determination ELISA, fibronectin F4,5 on coated (mis)folded proteins; type: binding; details: coated protein as labelled
# T1 construct: human fibronectin finger 4,5 (Fn F4,5) fragment; made in house; host or cells: HEK293E
# T1 sequence (P02751 182-276 limits assumed): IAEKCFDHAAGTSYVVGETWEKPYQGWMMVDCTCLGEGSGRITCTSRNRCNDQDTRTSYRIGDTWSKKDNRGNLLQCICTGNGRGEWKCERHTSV
# From the text: (§1) Synthetic genes of human BiP, human fibronectin finger 4,5 (Fn F4,5) fragment, and human tissue-type plasminogen activator finger EGF (tPA F-EGF) fragment were ordered from Geneart (Regensburg, Germany). These DNA constructs were digested using BamHI and NotI, and ligated into vector pABC674 (ABC-expression facility, Utrecht University, The Netherlands), which contains a carboxy-terminal FLAG-tag—His-tag. HEK293E cells were transiently transfected with these constructs using the polyethylene-imine method, and grown for 5-6 days.
# (§2) Denatured proteins and their native controls BSA (Sigma, A7906), glycated BSA, Hb (Sigma, H7605), glycated Hb, ovalbumin (Sigma, A6741), heat-denatured misfolded ovalbumin, human γ-globulins (Sigma, G4386), heat-denatured misfolded γ-globulins, alkyl-γ-globulins, lysozyme (ICN Biochemicals, 100831) and alkyl-lysozyme were coated on ELISA plates (Greiner Microlon high-binding, 655092) in 50 mM NaHCO3-buffer pH 9.6. The plates were blocked using Blocking reagent (Roche 1112589). […] Bound protein is detected by the FLAG-tag using 1:3000 anti-FLAG-HRP (Sigma A-8592) in PBS-T, or by 1:1000 Ni-NTA-HRP (Qiagen 34530) in PBS-T. The HRP reaction Is performed using the TMB substrate (Biosource 4501103 or Tebu Bio 101TMB100-500), stopped using 10% H2SO4 and absorbance was measured at 450 nm.
# BiP = target: T2, BiP (Homo sapiens, UniProt P11021); experiment: Affinity determination ELISA, BiP on coated (mis)folded proteins; type: binding; details: coated protein as labelled
# T2 construct: made in house; host or cells: HEK293E
# T2 sequence (P11021 19-654): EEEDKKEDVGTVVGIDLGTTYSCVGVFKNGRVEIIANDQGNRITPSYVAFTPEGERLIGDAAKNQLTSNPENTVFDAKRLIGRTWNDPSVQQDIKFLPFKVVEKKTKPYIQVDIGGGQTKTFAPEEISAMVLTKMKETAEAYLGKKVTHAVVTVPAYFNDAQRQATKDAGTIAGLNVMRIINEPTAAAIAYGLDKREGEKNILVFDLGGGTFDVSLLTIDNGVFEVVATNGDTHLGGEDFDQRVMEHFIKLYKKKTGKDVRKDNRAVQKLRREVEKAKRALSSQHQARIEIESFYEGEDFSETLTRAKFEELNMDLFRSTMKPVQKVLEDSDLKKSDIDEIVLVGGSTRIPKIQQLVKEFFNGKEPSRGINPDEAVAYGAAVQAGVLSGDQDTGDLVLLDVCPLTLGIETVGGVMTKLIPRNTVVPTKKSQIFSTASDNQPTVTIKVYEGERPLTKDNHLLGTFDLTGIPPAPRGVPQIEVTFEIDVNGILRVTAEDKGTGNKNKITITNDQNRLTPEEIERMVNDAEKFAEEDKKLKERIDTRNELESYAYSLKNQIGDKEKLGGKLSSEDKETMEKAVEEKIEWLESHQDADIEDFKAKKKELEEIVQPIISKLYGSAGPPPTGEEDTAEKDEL
# From the text: as §1, §2
# tPA F-EGF = target: T3, tPA F-EGF (Homo sapiens, UniProt P00750); experiment: Affinity determination ELISA, tPA F-EGF on coated (mis)folded proteins; type: binding; details: coated protein as labelled, relative to native control
# T3 construct: made in house; host or cells: HEK293E
# T3 sequence (P00750 36-120 limits assumed): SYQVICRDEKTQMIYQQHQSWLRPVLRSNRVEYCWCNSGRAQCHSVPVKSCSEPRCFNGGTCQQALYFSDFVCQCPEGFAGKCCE
# From the text: as §1, §2
# sRAGE = target: T4, sRAGE (Homo sapiens, UniProt Q15109); experiment: Biacore surface plasmon resonance, binding to immobilized sRAGE; details: Hb-AGE 32, albumin-AGE 3.9, amyloid γ-globulins 62.5 μg ml^−1
# T4 construct: comprises three domains spanning amino-acid residues 23-325; His-tag (N); thrombin cleavage site (N); made in house; host or cells: 293E cells (printed as 'hamster embryonic kidney cells')
# T4 sequence (Q15109 23-325): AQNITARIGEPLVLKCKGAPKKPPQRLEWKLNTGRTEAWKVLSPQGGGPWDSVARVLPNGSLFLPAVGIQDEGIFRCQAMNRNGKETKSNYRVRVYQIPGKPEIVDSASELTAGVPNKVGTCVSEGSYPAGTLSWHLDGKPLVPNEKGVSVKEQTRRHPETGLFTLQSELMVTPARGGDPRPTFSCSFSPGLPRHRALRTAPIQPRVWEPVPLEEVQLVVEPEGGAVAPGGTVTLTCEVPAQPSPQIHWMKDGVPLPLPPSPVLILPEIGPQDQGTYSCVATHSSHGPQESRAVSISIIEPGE
# Experimental: Binding of cross-β structure containing peptides/proteins was studied using surface plasmon resonance technology with a Biacore 2000 apparatus (Biacore AB, Uppsala, Sweden). A standardized amine coupling procedure was used to couple proteins with F domains to a CM5 chip (Biacore AB, Uppsala, Sweden). First, the dextran surface of the chips was activated by a 35 μl injection with a 1:1 mixture of 0.1 M N-hydroxysuccinimide (NHS) and 0.4 M N-ethyl-N′-(dimethylaminopropyl)carbodiimide (EDC) at a flow rate of 5 μl min.^−1. Then, the proteins were covalently coupled to the activated dextran surface. Remaining activated groups in each of the four flow channels were blocked by injection of 35 μl of 1 M ethanolamine hydrochloride pH 8.5. EDC, NHS and ethanolamine hydrochloride were obtained from Biacore. On one chip, on channels 1 to 4, buffer (reference channel), the soluble extracellular part of receptor for advanced glycation endproducts (sRAGE), tPA and K2P-tPA were immobilized. […] Binding of albumin-AGE was determined with a solution of 3.9 μg ml^−1 albumin-AGE in running buffer. albumin-AGE was filtered on a Millex-GV 0.22 μm filter unit (Millipore). […] Binding of Hb-AGE was also tested after centrifugation for 10 min. at 16,000*g alternative to filtration. tPA activation before and after filtration was assessed with a Plg-activation assay. […]
substance,measurement,setting,value
albumin-AGE: advanced glycation end-product modified bovine serum albumin,platelet aggregation,platelets,Platelets readily aggregate
same,"affinity for fibronectin F4,5","fibronectin F4,5",High affinities
same,binding of BiP,BiP,high affinity
same,binding of tPA F-EGF,tPA F-EGF,High binding affinities
same,binding to immobilized sRAGE,sRAGE,bind
